According to paper PMC12582121, “RNA binding of GAPDH controls transcript stability and protein translation in acute myeloid leukemia”:

Assays:
[1] = target: T1, GAPDH (Homo sapiens, UniProt P04406 1-335); assay: fluorescence polarization; 10 mM Tris-HCl pH 8.0, 50 mM KCl, 2 mM DTT, 0.5 mM EDTA, 0.1 mg/ml BSA, 0.1 mg/ml heparin, room temperature; FP 30 min with 2 nM RNA; EMSA 20 min plus 10% glycerol and RiboLock, 6% native gel at 4°C; mass photometry without BSA/heparin; settings: protein: recombinant, tags: N-terminal His, chain copies: 4, single strand
T1 sequence (P04406 whole entry): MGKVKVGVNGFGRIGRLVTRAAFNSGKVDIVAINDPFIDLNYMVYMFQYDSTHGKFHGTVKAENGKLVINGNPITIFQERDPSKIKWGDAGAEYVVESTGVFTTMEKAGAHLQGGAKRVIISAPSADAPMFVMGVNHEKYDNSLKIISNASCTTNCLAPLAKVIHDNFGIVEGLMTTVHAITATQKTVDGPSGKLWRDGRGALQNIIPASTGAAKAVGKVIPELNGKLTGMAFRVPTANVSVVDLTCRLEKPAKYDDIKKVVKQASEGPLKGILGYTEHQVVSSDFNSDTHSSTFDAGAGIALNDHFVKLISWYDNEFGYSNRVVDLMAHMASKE

[2] = target: T1, GAPDH; assay: EMSA, possibly a misprint for nM; 10 mM Tris-HCl pH 8.0, 50 mM KCl, 2 mM DTT, 0.5 mM EDTA, 0.1 mg/ml BSA, 0.1 mg/ml heparin, room temperature; FP 30 min with 2 nM RNA; EMSA 20 min plus 10% glycerol and RiboLock, 6% native gel at 4°C; mass photometry without BSA/heparin; settings: protein: recombinant; tags: N-terminal His; chain copies: 4; label: fluorescein (Roche RNA labeling mix, internal); single strand
[3] = target: T1, GAPDH; assay: EMSA; 10 mM Tris-HCl pH 8.0, 50 mM KCl, 2 mM DTT, 0.5 mM EDTA, 0.1 mg/ml BSA, 0.1 mg/ml heparin, room temperature; FP 30 min with 2 nM RNA; EMSA 20 min plus 10% glycerol and RiboLock, 6% native gel at 4°C; mass photometry without BSA/heparin; settings: protein: recombinant, tags: N-terminal His, chain copies: 4, single strand

## UGGCCAAUGCCCUGGCUCACAAAUACCACUG (ssRNA) [Rβ31]
[1]; S17 legend says FITC-labeled RNA
  Kd: 1310 nM

B1: RPL13a 5'UTR (ssRNA)
RNA: GGGCCUCCUUUUCCAAGCGGCUGCCGAAGAUGGCGGAGGUGCAGGUCCUGGUGCUUGAUGGUCGAGGCCAUCUCCUGGGCCGCCUGGCGGCCAUCGUGGCUAAACAG
[2]
  Kd: 887000 nM

B2: GAPDH 5'UTR (ssRNA)
RNA: GGGCUCUCUGCUCCUCCUGUUCGACAGUCAGCCGCAUCUUCUUUUGCGUCGCCAGCCGAGCCACAUCGCUCAGACACC
[3]; label: fluorescein (Roche RNA labeling mix, internal)
  Kd: 400 nM

## GUGAUUAUUUAUUAUUUAUUUAUUAUUUAUUUAUUUAG (ssRNA) [TNFα-ARE38]
[3]
  Kd: 217 nM
[1]
  Kd: 167 nM
